Results taken from article PMC9170038, “Crowdsourced RNA design discovers diverse, reversible, efficient, self-contained molecular switches”.

What was measured:
Conditions in all cases: chain copies: 2; label: tethered by stalled RNA polymerase
[1] = target: T1, MS2 coat protein, dlFG mutant (Escherichia phage MS2, UniProt P03612, del68-81insG); experiment: 4 mM Mg2+; L-tryptophan 2.4 mM; RNA-MaP array; 100 mM Tris-HCl pH 7.5, 80 mM KCl, 4 mM MgCl2, 0.1 mg/mL BSA, 1 mM DTT, 0.01 mg/mL yeast tRNA, 0.01% Tween-20; protein 1.5 nM to 3 uM; 37 C (Table S3)
[2] = target: T1, MS2 coat protein, dlFG mutant; experiment: 4 mM Mg2+; no ligand; RNA-MaP array; 100 mM Tris-HCl pH 7.5, 80 mM KCl, 4 mM MgCl2, 0.1 mg/mL BSA, 1 mM DTT, 0.01 mg/mL yeast tRNA, 0.01% Tween-20; protein 1.5 nM to 3 uM; 37 C (Table S3)
[3] = target: T1, MS2 coat protein, dlFG mutant; experiment: 4 mM Mg2+; FMN 200 uM; RNA-MaP array; 100 mM Tris-HCl pH 7.5, 80 mM KCl, 4 mM MgCl2, 0.1 mg/mL BSA, 1 mM DTT, 0.01 mg/mL yeast tRNA, 0.01% Tween-20; protein 1.5 nM to 3 uM; 37 C (Table S3)
[4] = target: T1, MS2 coat protein, dlFG mutant; experiment: 4 mM Mg2+; miR-208a RNA 100 nM (AU…UUGU); RNA-MaP array; 100 mM Tris-HCl pH 7.5, 80 mM KCl, 4 mM MgCl2, 0.1 mg/mL BSA, 1 mM DTT, 0.01 mg/mL yeast tRNA, 0.01% Tween-20; protein 1.5 nM to 3 uM; 37 C (Table S3)
[5] = target: T1, MS2 coat protein, dlFG mutant; experiment: 4 mM Mg2+; theophylline 2 mM; RNA-MaP array; 100 mM Tris-HCl pH 7.5, 80 mM KCl, 4 mM MgCl2, 0.1 mg/mL BSA, 1 mM DTT, 0.01 mg/mL yeast tRNA, 0.01% Tween-20; protein 1.5 nM to 3 uM; 37 C (Table S3)

B1: Eterna 7730854 (Same State - Tryptophan A) (ssRNA)
RNA: UACAUGAGGAUCACCCAUGUCCCAUGUGAACGAGGACCGGUACGGCCGCCACUCGACCGAGGCGGCACAUGAGGAUCACCCGCAU
Q: For B1, which Kd [1] is on record?
A: 1580 nM

B2: Eterna 1142 (Exclusion - Theophylline A) (ssRNA)
RNA: UGCAUCAGUGCCUUUGAUCUAUUCCUGGAUACCAGAUCCUACUUGAUCCCUUGGCAGCCAUACGGGAGUGAUGUUCCAUGUAUCC
Q: For B2, which Kd [2] is on record?
A: > 3000 nM

B3: Eterna 7699730 (Exclusion - Theophylline A) (ssRNA)
RNA: AGAAACUUGUAUGUCGGCCCUGCGCGCGAUACCAGCCAAAUGGAUGGCCCUUGGCAGCGCAGCGAGUGAUGUUCGCCCGGCUGAC
Q: Which Kd [2] does the source give for B3 here?
A: > 3000 nM

B4: Eterna 7627711 (Same State - Tryptophan B) (ssRNA)
RNA: GGUUACUCUACGGCCGCCACUGAUUAAUUAUAAUCCUGUACAUAAACAUGAGGAUCACCCAUGUACAGGACCGGGUAGUGUAACC
Q: How did the Kd [1] turn out when B4 was run?
A: 29.1 nM

B5: Eterna 5811984 (Exclusion 6) (ssRNA)
RNA: CUUAGUAUCUAGGAUAUCUAGUACAUAGUAUCUAGAGAAGGAGAUACAUGAGGAUCACCCAUGUUCUGUGUUCU
Q: B5 was tested. Which Kd [3] did it give?
A: 65.6 nM

B6: Eterna 13246 (Sensor for hsa-mir-208a) (ssRNA)
RNA: UGGAUCUAGGCUUGCCUGGGUCCAUGUUGACAUGAGGAUCACCCAUGUGUAUUUUAUAAGCUUUUUGUUUGUCAACA
Q: B6 was tested. Which Kd [4] did it give?
A: 13.4 nM

B7: Eterna 10216 (Sensor for hsa-mir-208a) (ssRNA)
RNA: CUCAAAACAAGUUGCAGUGUUCGUCUUUAACAUGAGGAUCACCCAUGUAAUAACCCAGUGGAAGCGCUCGGGCCACC
Q: With B7 as the binder, how does the Kd [4] read?
A: 21.1 nM

B8: Eterna 7639274 (Exclusion - Theophylline B) (ssRNA)
RNA: UUAUUUAUAAUGGAUACCAGUGCUGUGGCCCGGCAUCCUGACAUGAGGAUCACCCAUGUGUACCCUUGGCAGCUGUUAUGGGUUU
Q: B8 was tested. Which Kd [5] did it give?
A: 24.2 nM

B9: Eterna 11880 (Sensor v3, turn-off variant 2) (ssRNA)
RNA: AGAAAUGCCCAUGGCCGCAAGCUUUUCGCUUGUCUUACCACAUGAGGAUCACCCAUGUGACAUGGGCUCCUUAUAAU
Q: B9 was tested. Which Kd [4] did it give?
A: 10.7 nM

B10: Eterna 6082084 (Exclusion 3) (ssRNA)
RNA: AACACGUGAGGAUAUACAUGAGGAUCACCCAUGUUGGUACAAUCCUGUCCGACUAUCCGUAGAAGGCAUUGACU
Q: B10 was tested. Which Kd [3] did it give?
A: 34.1 nM
